From patent US20150359847A1, “METHOD AND COMPOSITION FOR CONFERRING NEUROPROTECTION” (BLOOD SYSTEMS RESEARCH INSTITUTE, priority 2014, published 2015)

Columns and labels:
[1] = system: p-AKT(Ser473) in primary hippocampal neurons; assay: Akt (Ser473) phosphorylation in primary hippocampal neurons (antibody array, western blot); assay type: cell-based, mouse; conditions: 1 μg/ml TIMP3, 15 mins
Method: SH-SY5Y cells were obtained from ATCC (Cat# CRL-2266, Manassas, Va.) and were cultured in DMEM and 10% FBS up to passage 10. For differentiation of SH-SY5Y cells into a neuronal phenotype, cells were first plated in DMEEM+10% FBS for 24 hrs before exchanging media in DMEM+1% FBS 10 μM retinoic acid. Differentiation was performed for 3 days before experimentation. Hippocampal neurons were prepared according to the protocol by Beaudoin et al. (Nature Protocols 2012; 7(9):1741-1754) with minor modifications. In brief, after trypsin digestion of hippocampi isolated from P1 mouse pups single cell suspensions was created by trituration and plated onto Biocoat™ poly-D-lysine coated 12-well plates (Cat#354470, BD Biosciences, San Jose, Calif.). […]
Pathscan Antibody™ array kits were purchased from Cell Signaling Technologies (Danvers, Mass.). PathScan® RTK signaling antibody array kit (Fluorescent Readout, Cat#7949) and PathScan™ Akt signaling antibody array kit (Fluorescent Readout, Cat#9700) were performed as per manufacturer's instructions. Imaging was performed on a LI-COR Odyssey™ infrared scanner and pixel densities measured by in house LI-COR Image™ suite software. […]
Lysates was analyzed in conjuncture with the LI-COR Odyssey™ infra-red imaging system. […] After further wash steps images were obtained using a LI-COR™ Odyssey scanner and quantified using LI-COR™ Image Studio software. […]

[2] = system: SH-SY5Y cells; assay: Colorimetric neurite outgrowth assay; assay type: cell-based, human; conditions: 1 μg/ml TIMP3, 48 hrs
Method: Neurite Outgrowth Assay Kit™ 3 μm (Cat# NS220) and AXIS™ Axon Isolation Devices, 150 μm, Plasma Bonded chamber slides (Cat# AX15005PB) were purchased from (EMD Millipore, Billerica, Mass.). For neurite outgrowth assays SH-SY5Y cells were initially differentiated for 24 hrs at a density of 4×10^5 cells per well of a 6-well plate. Cells were then dissociated using kit supplied dissociation buffer and 3×10^5 cells were replated onto transwell inserts. […] Assay was conducted per manufacturer's instructions.

[3] = molecular target: T1, MMP-2 (Homo sapiens, UniProt P08253); assay: SensoLyte Fluorimetric MMP-2 Activity Assay; assay type: biochemical; conditions: dose response; 1 μg/ml TIMP3
T1 sequence (P08253 110-660): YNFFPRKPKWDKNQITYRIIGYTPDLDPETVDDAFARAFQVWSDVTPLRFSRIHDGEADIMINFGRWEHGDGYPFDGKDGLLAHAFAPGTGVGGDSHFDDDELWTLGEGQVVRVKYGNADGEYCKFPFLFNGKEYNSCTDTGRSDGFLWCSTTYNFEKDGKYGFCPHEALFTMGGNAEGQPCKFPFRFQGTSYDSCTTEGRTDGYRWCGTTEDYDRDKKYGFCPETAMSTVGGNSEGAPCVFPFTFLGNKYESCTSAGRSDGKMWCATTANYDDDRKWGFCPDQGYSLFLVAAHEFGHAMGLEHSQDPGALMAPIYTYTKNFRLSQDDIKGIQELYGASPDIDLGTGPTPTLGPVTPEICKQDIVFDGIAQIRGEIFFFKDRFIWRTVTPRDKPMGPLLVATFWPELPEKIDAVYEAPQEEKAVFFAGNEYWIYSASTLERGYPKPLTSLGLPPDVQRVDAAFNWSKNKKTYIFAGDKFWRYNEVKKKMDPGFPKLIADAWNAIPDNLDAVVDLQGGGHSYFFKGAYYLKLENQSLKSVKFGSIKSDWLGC
Source text: SensoLyte Fluorimetric MMP-2 Activity Assay Kit™ (Cat#71151) and SensoLyte Fluorimetric MMP-9 Activity Assay Kit™ (Cat#71155) were purchased from AnaSpec (Fremont, Calif.) and performed per manufacturer's instructions.

B1: TIMP3: Recombinant tissue inhibitor of matrix metalloproteinase-3, a soluble protein released by MSCs, obtained from Amgen Inc. (protein)
chain: CTCSPSHPQDAFCNSDIVIRAKVVGKKLVKEGPFGTLVYTIKQMKMYRGFTKMPHVQYIHTEASESLCGLKLEVNKYQYLLTGRVYDGKMYTGLCNFVERWDQLTLSQRKGLNYRYHLGCNCKIKSCYYLPCFVTSKNECLWTDMLSNFGYPGYQSKHYACIRQKGGYCSWYRGWAPPDKSIINATDP
[1]
  p-AKT(Ser473), fluorescent antibody signaling array: activates p-AKT(Ser^473)
  p-AKT(Ser473), western blot: activates p-AKT(Ser^473)
[2]
  neurite outgrowth (colorimetric): promotes increased neurite outgrowth
[3]
  MMP-2 inhibition (Sensolyte FRET assay): can fully inhibit
